# Measured values published in PMC10120048.
# Biological target: Cytochrome bX
# Assay: native MS; 5 µM purified CytbX in 0.2 M ammonium acetate pH 8.0 with lauryldimethylamine oxide at 2x critical micelle concentration; Q-Exactive UHMR; dimer of the protein with itself
substance,measurement,value
Cytochrome bX,stoichiometry N,2
